# Experimental data taken from US20210371526A1 (AMPSOURCE BIOPHARMA SHANGHAI, published 2021).
# Legend:
# [1] = molecular target: T1, Mucin1 on tumor cells (MCF-7, BT-549, HCC70, T-47D, HCC1954, SK-OV-3, Hela, HT-29) (human, UniProt P15941 24-1255); experiment: flow cytometry on HCC1954 cells
# T1 construct: whole, on cells; also called tumor cells over-expressing Mucin1
# [2] = molecular target: T1, Mucin1 on tumor cells (MCF-7, BT-549, …); experiment: flow cytometry on BT-549 cells
# [3] = molecular target: T1, Mucin1 on tumor cells (MCF-7, BT-549, …); experiment: flow cytometry on HCC70 cells
# [4] = molecular target: T1, Mucin1 on tumor cells (MCF-7, BT-549, …); experiment: flow cytometry on T-47D cells
# [5] = molecular target: T1, Mucin1 on tumor cells (MCF-7, BT-549, …); experiment: cell-based or functional assay
# [6] = molecular target: T1, Mucin1 on tumor cells (MCF-7, BT-549, …); experiment: flow cytometry on SK-OV-3 cells
# [7] = molecular target: T1, Mucin1 on tumor cells (MCF-7, BT-549, …); experiment: flow cytometry on Hela cells
# [8] = molecular target: T1, Mucin1 on tumor cells (MCF-7, BT-549, …); experiment: cell-based or functional assay; remark: listed apart in the source
binder,measurement,setting,value
"Bispecific antibody AB11K (Anti-Mucin1×CD3, scFv1-scFv2-Fc) (bispecific antibody) EVQLVESGGGLVQPGGSMRLSCVASGFPFSNYWMNWVRQAPGKGLEWVGEIRLKSNNYTTHYAESVKGRFTISRDDSKNSLYLQMNSLKTEDTAVYYCTRHYYFDYWGQGTLVTVSSGGGGSGGGGSGGGGSDIVMTQSPLSNPVTPGEPASISCRSSKSLLHSNGITYFFWYLQKPGQSPQLLIYQMSNLASGVPDRFSGSGSGTDFTLRISRVEAEDVGVYYCAQNLELPPTFGQGTKVEIKGGGGGGSGGGGSGGGGSSSSSKAPPPSEVQLLESGGGLVQPGGSLKLSCAASGFTFNTYAMNWVRQAPGKGLEWVARIRSKYNNYATYYADSVKDRFTISRDDSKNTAYLQMNNLKTEDTAVYYCVRHGNFGNSYVSWFAYWGQGTLVTVSSGGGGSGGGGSGGGGSELVVTQEPSLTVSPGGTVTLTCRSSTGAVTTSNYANWVQQKPGQAPRGLIGGTNKRAPGTPARFSGSLLGGKAALTLSGVQPEDEAEYYCALWYSNLWVFGGGTKLTVLDKTHTCPPCPAPEAAGGPSVFLFPPKPKDQLMISRTPEVTCVVVDVSHEDPEVKFNWYVDGVEVHNAKTKPREEQYASTYRVVSVLTVLHQDWLNGKEYKCKVSNKALPASIEKTISKAKGQPREPQVYTLPPSRDELTKNQVSLTCLVKGFYPSDIAVEWESNGQPENNYKTTPPVLDSDGSFFLYSKLTVDKSRWQQGNVFSCSVLHEALHNHYTQKSLSLSPG",EC50,[1],81.2 nM
same,EC50,[2],287 nM
same,EC50,[3],59 nM
same,EC50,[4],5.05 nM
same,T cell activation EC50 (Jurkat-NFAT luciferase) with BT-549 cells,[5],10.5 nM
same,T cell activation EC50 (Jurkat-NFAT luciferase) with HCC70 cells,[5],3.02 nM
same,T cell activation EC50 (Jurkat-NFAT luciferase) with HCC1954 cells,[5],5.6 nM
same,T cell activation EC50 (Jurkat-NFAT luciferase) with HT-29 cells,[5],6.71 nM
same,T cell activation EC50 (Jurkat-NFAT luciferase) with Hela cells,[5],7.24 nM
same,T cell activation EC50 (Jurkat-NFAT luciferase) with MCF-7 cells,[5],14.2 nM
same,T cell activation EC50 (Jurkat-NFAT luciferase) with SK-OV-3 cells,[5],10.4 nM
same,T cell activation EC50 (Jurkat-NFAT luciferase) with T-47D cells,[5],0.629 nM
same,EC50,[6],93.7 nM
same,EC50,[7],5.51 nM
same,"PBMC killing EC50, BT-549 cells",[8],0.956 nM
same,"PBMC killing EC50, HCC70 cells",[8],0.595 nM
same,"PBMC killing EC50, HCC1954 cells",[8],1.89 nM
same,"PBMC killing EC50, HT-29 cells",[8],9.55 nM
same,"PBMC killing EC50, Hela cells",[8],4.81 nM
same,"PBMC killing EC50, MCF-7 cells",[8],0.131 nM
same,"T cell killing EC50, BT-549 cells",[8],0.141 nM
same,"T cell killing EC50, HCC70 cells",[8],0.185 nM
same,"T cell killing EC50, HCC1954 cells",[8],0.281 nM
same,"T cell killing EC50, HT-29 cells",[8],1.58 nM
same,"T cell killing EC50, Hela cells",[8],0.278 nM
same,"T cell killing EC50, MCF-7 cells",[8],0.153 nM
same,"T cell killing EC50, SK-OV-3 cells",[8],0.689 nM
same,"T cell killing EC50, T-47D cells",[8],0.0845 nM
